Measured values taken from patent publication US20250223354A1 (BIOTHEUS, published 2025).

How the values were obtained:
[1] = target: T1, human PVRIG expressed on cells (human, UniProt Q6DKI7 41-326); assay: flow cytometry, CHO-huPVRIG cells
T1 construct: whole, on cells; cDNA encoding human PVRIG in pCHO1.0 for CHO cells; also called CHO-huPVRIG cells
T1 sequence (looked up): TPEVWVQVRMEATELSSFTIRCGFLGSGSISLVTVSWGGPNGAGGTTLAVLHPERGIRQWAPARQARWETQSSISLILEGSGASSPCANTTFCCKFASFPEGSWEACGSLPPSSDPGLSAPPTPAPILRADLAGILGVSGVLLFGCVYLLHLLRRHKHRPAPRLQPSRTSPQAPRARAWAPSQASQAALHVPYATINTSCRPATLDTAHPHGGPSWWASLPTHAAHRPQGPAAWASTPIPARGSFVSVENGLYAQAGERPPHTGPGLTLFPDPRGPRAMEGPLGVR
Procedure: (§1) The overexpressing cells were expanded and adjusted to an appropriate cell density, and added to a 96-well flow cytometry plate. After centrifugation, the cells were added with a gradiently diluted sample to be tested, and incubated at 4° C. for 30 minutes. The cells were washed twice with PBS, and added with a fluorescent secondary antibody correspondingly diluted to an appropriate concentration, then incubated at 4° C. for 30 minutes, and washed twice with PBS. Cells were resuspended with PBS, and detected on a CytoFlex flow cytometer, and the corresponding MFI was calculated. Graphpad software was used for graphical analysis to obtain EC₅₀ values.

[2] = target: T2, mouse PVRIG overexpressed on CHO cells (mouse, UniProt A0A1B0GS01 1-234); assay: flow cytometry, CHO-muPVRIG cells
T2 construct: also called CHO-muPVRIG cells
T2 sequence: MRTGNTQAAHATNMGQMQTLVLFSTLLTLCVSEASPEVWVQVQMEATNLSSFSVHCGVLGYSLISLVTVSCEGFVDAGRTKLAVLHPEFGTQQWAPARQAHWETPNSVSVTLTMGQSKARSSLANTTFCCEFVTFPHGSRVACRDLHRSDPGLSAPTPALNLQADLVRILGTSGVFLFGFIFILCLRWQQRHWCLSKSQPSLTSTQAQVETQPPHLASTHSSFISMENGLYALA
Procedure: as §1

[3] = target: T3, cynomolgus PVRIG overexpressed on CHO cells (cynomolgus, UniProt A0A2K5WVV8 1-322); assay: flow cytometry, CHO-cynoPVRIG cells
T3 construct: whole, on cells; also called CHO-cynoPVRIG cells
T3 sequence: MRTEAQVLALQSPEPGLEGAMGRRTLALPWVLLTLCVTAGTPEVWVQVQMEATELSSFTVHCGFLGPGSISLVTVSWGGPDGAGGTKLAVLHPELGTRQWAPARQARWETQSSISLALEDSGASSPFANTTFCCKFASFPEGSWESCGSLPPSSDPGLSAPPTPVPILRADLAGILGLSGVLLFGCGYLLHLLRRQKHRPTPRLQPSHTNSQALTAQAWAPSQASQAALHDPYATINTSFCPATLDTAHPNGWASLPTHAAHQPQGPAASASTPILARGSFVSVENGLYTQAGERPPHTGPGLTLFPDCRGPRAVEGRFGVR
Procedure: as §1

[4] = target: T4, human PVRIG-his protein (human, UniProt Q6DKI7 41-171, limits assumed); assay: BLI (ForteBio), antibody on AHQ sensor, 100 nM antigen, monovalent, 1:1 model
T4 construct: not shown: his tag
T4 sequence: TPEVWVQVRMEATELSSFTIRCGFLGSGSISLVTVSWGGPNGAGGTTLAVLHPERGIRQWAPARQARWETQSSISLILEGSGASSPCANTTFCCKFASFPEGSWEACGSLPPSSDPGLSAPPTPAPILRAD
Procedure: (§2) The antibody-loaded sensor was incubated in 100 nM target antigen to the plateau phase, and then the sensor was transferred to an analysis buffer and incubated for at least 2 minutes for measuring dissociation rate. The kinetic analysis was performed using a 1:1 binding model.

[5] = target: T5, cynomolgus monkey PVRIG-Fc protein (cynomolgus monkey, UniProt Q6DKI7 41-171 (human entry), limits assumed); assay: BLI (ForteBio), antibody on AHQ sensor, 100 nM Fc antigen, bivalent, 1:1 model
T5 construct: no signal peptide limits stated; Bivalent antigen; also called Cynomolgus PVRIG-hFc; not shown: human Fc (hFc)
T5 chain: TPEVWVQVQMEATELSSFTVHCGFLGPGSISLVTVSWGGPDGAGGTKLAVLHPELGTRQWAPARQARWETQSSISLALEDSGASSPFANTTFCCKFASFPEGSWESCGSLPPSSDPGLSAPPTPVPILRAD
Procedure: as §2, with “antibody-loaded sensor was continued to be loaded in a high concentration of irrelevant intact antibody for 10 min, saturating the Fc-binding site on the AHQ sensor. The saturated” for “antibody-loaded”

[6] = target: Biotin-labeled mouse PVRIG protein with Mouse IgG2a Fc tag (mouse); assay: competition ELISA: biotin mouse PVRIG-mouse IgG2a Fc binding to coated mouse CD112-his
Procedure: The coating solution in the ELISA plate was discarded, and the ELISA plate was washed three times with 1×PBST and was blocked with 5% BSA/PBS at 200 μL/well for 2 hours at room temperature. […] The SA-HRP dilution was discarded, the ELISA plate was washed three times with 1×PBST, ELISA Chromogen Solution was added at 100 μL/well and incubated for 1-3 minutes at room temperature, ELISA stopping solution was added at 50 μL/well and the absorbance values were read at 450 nm.

[7] = target: T6, human PVRIG protein with mouse IgG2a Fc tag (human; mouse, UniProt Q6DKI7 41-171, limits assumed); assay: flow cytometry, competition: human PVRIG-mouse IgG2a Fc (1 ug/mL) binding to CHO-huCD112 cells
T6 construct: Whole entry named; not shown: mouse IgG2a Fc tag
T6 sequence (looked up): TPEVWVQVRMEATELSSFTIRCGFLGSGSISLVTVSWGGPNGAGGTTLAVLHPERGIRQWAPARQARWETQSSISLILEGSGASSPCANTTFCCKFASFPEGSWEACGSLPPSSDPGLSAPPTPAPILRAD
Procedure: Specifically, CHO cells overexpressing human CD112 (CHO-huCD112 cells) were generated by transfection of the pCHO1.0 vector (purchased from Invitrogen) with cDNA encoding human CD112 cloned into the multiple cloning site (MCS), followed by pressure screening. […] APC-conjugated goat anti-mouse IgG antibody diluted 100-fold with PBS was added at 100 μL/well, incubated at 4° C. for 30 minutes and washed twice with PBS. Cells were resuspended with PBS at 100 μL/well, and detected on a CytoFlex flow cytometer, and the corresponding MFI was calculated.

[8] = target: T7, biotin-labeled TIGIT protein (co-binding ELISA) (human, UniProt Q495A1 22-141, biotin-labeled (site not stated)); assay: co-binding (sandwich) ELISA: coated human PVRIG protein, antibody titrated, detected with biotin-labeled TIGIT protein 1 ug/mL and SA-HRP, absorbance 450 nm
T7 construct: Whole entry named; also called human TIGIT protein
T7 sequence (looked up): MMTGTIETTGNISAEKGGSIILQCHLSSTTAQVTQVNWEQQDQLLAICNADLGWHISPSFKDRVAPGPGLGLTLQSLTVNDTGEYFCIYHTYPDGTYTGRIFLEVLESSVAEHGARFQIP

B1: anti-PVRIG monoclonal antibody ADI-56127 (antibody, V domains shown)
VH: QVQLVQSGAEVKKPGSSVKVSCKASGGTESVDAISWVRQAPGQGLEWMGDIIPFFDTDYAQKFQGRVTITADESTSTAYMELSSLRSEDTAVYYCAREGGTSWTHFFDLWGRGTLVTVSS
VL: not shown
For B1, which EC50 [1] is on record?
The EC50 was 2540 pM.

What about the EC50 [2] of the same binder?
The EC50 was 3350 pM.

And the EC50 [3]?
Its EC50 is 844 pM.

And the Kd [4]?
The Kd was 144 pM.

And the Kd [5]?
Its Kd is 267 pM.

What about the IC50 [6] of the same binder?
The IC50 was 261 pM.

And the IC50 [7]?
Its IC50 is 1060 pM.

Does B1 bind [8]?
Result: no binding (tested: 100 nM)
